The values that follow come from publication PMC9332396.

This experiment concerns the target His6-NbSWP12 recombinant protein (spore wall protein NbSWP12 of Nosema bombycis) (Nosema bombycis). Description: non-reducing SDS-PAGE with Western blot; purified His6-NbSWP12 in non-reducing loading buffer (no SDS, no β-mercaptoethanol, not heated), 12% gel, blot with NbSWP12 antiserum. (In general: Immunoblotting shows a protein as a band on a membrane.)

In general, stoichiometry N refers to the number of molecules, sites or subunits per partner or assembly. With “His6-NbSWP12 recombinant protein (spore wall protein NbSWP12 of Nosema bombycis) (natural protein)”, the stoichiometry N was 2.
